Tests used:
[1] = target: talin (human) (UniProt Q9Y490); test: FRAP on a spinning disk confocal microscope
[2] = target: talin (human) (UniProt Q9Y490); test: FRAP on a TIRF microscope
[3] = target: talin (human) (UniProt Q9Y490); test: TIRF microscopy of recruitment to a protein-micropatterned surface

EGFP-vinculin 1-851 (Vh) (from UniProt P18206 1-851) (domain or fragment)
koff [1]: 0.0029 s⁻¹ | koff [2]: 0.0033 s⁻¹ | koff [3]: 0.0034 s⁻¹
